Experimental data from US20200155643.

Target: Recombinant human protein C inhibitor (PCI, SERPINA5) (UniProt P05154)
Sequence (P05154 20-406): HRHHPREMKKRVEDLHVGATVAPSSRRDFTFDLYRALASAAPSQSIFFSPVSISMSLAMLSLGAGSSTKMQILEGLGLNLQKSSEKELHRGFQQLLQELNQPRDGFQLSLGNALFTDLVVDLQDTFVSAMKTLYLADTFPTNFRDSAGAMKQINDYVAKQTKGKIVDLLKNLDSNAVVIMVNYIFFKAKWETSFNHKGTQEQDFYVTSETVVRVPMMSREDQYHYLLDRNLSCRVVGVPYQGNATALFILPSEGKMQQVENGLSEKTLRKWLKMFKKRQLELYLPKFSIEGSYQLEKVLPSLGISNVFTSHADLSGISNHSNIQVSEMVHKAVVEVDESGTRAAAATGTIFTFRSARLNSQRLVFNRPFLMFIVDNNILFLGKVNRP

Row | Substance | cleavage of PCI (anti-PCI immunoblot)
1 | Recombinant human hepsin (R&D Systems 4776-SE-10) | resulted in the appearance of cleaved forms of PCI
2 | Recombinant mouse testisin (R&D Systems 6820-SE-10) | PCI is a substrate for testisin ... testisin cleaves PCI at a second site
